Patent US20230111363A1

Experiments:
[1] = biological target: human FcγRI (CD64) extracellular domain (human) (UniProt P12314); assay: SPR (Biacore T100), antibody captured on Protein A, FcγR ECD as analyte, 25 C
[2] = biological target: human FcγRIIA_131H (CD32a) extracellular domain (human) (UniProt P12318); assay: SPR (Biacore T100), antibody captured on Protein A, FcγR ECD as analyte, steady state, 25 C
[3] = biological target: human FcγRIIA_131R (CD32a) extracellular domain (human) (UniProt P12318); assay: as above
[4] = biological target: human FcγRIIIA_F158 (CD16a) extracellular domain (human) (UniProt P08637); assay: as above
[5] = biological target: human FcγRIIb (CD32b) extracellular domain (human) (UniProt P31994); assay: as above
Chain of human FcγRIIb (CD32b) extracellular domain (human) (P31994 43-217): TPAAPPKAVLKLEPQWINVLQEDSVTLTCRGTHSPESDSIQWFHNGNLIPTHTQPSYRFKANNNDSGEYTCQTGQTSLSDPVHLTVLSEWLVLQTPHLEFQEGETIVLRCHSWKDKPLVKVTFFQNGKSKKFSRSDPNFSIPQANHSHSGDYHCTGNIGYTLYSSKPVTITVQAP

Chain of human FcγRIIIA_F158 (CD16a) extracellular domain (human) (P08637 17-208): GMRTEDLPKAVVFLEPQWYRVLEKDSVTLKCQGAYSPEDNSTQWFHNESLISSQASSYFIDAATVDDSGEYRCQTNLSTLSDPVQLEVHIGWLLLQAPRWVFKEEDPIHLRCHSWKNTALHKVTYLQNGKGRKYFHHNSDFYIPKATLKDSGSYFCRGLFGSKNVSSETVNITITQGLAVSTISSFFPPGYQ
Chain of human FcγRIIA_131H (CD32a) extracellular domain (human) (P12318 34-217): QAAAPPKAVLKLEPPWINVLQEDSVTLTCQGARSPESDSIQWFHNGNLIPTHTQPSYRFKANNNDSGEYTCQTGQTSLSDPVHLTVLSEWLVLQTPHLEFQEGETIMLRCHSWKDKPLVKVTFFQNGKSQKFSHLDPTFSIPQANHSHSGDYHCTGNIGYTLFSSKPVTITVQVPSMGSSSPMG
Chain of human FcγRIIA_131R (CD32a) extracellular domain (human) (P12318 34-217 H167R): as the sequence (P12318 34-217) above, with H134R counted along it
Chain of human FcγRI (CD64) extracellular domain (human) (P12314 16-292): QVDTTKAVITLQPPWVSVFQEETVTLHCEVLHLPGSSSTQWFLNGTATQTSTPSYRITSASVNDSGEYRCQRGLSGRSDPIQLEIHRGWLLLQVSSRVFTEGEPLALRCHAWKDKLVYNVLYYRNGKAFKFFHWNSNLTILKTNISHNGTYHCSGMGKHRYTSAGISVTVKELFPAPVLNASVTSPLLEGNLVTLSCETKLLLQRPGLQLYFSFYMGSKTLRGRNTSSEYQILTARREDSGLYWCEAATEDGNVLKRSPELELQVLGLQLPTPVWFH

Kd [1]: 0.0426 nM
Kd [2]: 500 nM
Kd [3]: 500 nM
Kd [4]: 900 nM
Kd [5]: 1900 nM
Substance: Human WT IgG1 Fc (antibody)
